Usually stoichiometry N stands for a count of units in the complex or per binding partner. One may read the pKd as −log10 of the Kd, conventionally taken in molar units.

The target of assay [1] is EspFU three-repeat fragment. The experiment in a line: AUC + other: binding assays.
The target of assay [2] is N-WASP GBD (amino acids 214-274) (UniProt O08816).

pKd: −log10 of the molar value.

Sequence of EspFU three-repeat fragment (C6UYI3 whole entry, the tested form may be a part): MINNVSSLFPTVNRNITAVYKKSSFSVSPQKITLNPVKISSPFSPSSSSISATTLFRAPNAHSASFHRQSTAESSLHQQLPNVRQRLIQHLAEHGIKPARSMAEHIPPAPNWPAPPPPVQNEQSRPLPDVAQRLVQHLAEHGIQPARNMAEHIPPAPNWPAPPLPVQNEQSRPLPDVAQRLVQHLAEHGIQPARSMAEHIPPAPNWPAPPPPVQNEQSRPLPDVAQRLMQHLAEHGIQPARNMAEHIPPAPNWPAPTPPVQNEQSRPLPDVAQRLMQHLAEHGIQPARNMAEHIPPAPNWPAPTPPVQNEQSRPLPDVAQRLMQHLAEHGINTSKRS
Sequence of UniProt O08816 (O08816 214-274): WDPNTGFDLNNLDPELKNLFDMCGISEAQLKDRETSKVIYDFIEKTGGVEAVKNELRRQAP

In the case of N-WASP GBD (domain or fragment), in assay [1], the stoichiometry N came out at 3. In the case of one EspFU repeat (domain or fragment), the pKd in assay [2] is 7.74.

The values above are taken from article PMC2749708.
